Results reported in patent US20110177059A1, “PSA AND KLK2 AS THERAPEUTIC TARGETS AND MOLECULES INHIBITING PSA AND KLK2” (UNIVERSITY OF ROCHESTER, priority 2008, published 2011).

System: LN-PSA cells
Experiment: MTT assay with PSA proteinase inhibitor, LN-PSA cells
Type: cell-based, human
Conditions: 1000 ng/ml, vs vehicle 1x PBS
Description: Cells of stable transfected LNCaP, CWR22rv1, PC-3 and Du145 sublines were seeded in 24-well tissue culture plates at a density of 5000 cells/well in media containing 10% CD-FBS with 1 nM DHT. At the indicated time points, the medium was replenished and determined cell proliferation by MTT [3-(4,5-dimethylthiazol-2-yl)-2,5-diphenyltetrazolium bromide assay. Serum-free medium containing MTT (0.5 mg/ml, Sigma) was added into each well and after 4 h incubation at 37° C., cellular formazan product was dissolved with acidic isopropanol, and the absorbance at OD595 was measured by spectrophotometry (Beckman Du640B). 6 replicate wells were used for each sample at each time point. a-Antichymotrypsin (MP Biomedicals, Inc) at a concentration of 1000 ng/ml was used in the MTT assay as a PSA proteinase inhibitor to treat the LNCaP cell sublines. LN-PSA, LN-siPSA cells were grown in 100-mm dishes. The cells were digested by trypsin-EDTA, harvested as many as 1×10^6 cells, and fixed them in 70% ethanol at 4° C. After 12 h, cells were centrifuged (1000 g, 7 min, 4° C.), and resuspended in PBS containing 0.05 mg/ml RNase A (Sigma), and then incubated at room temperature for 30min. After washing, the cells were stained with […] propidium iodide, filtered through a […], and analyzed 10,000 cells by flow cytometry (FACSCalibur, BD Company) with MODFIT software (Verity Software House, Inc).

B1: α1-antichymotrypsin: PSA protease inhibitor (MP Biomedicals), used at 1000 ng/ml (protein, UniProt P01011 24-423, looked up)
Alpha-1-antichymotrypsin: HPNSPLDEENLTQENQDRGTHVDLGLASANVDFAFSLYKQLVLKAPDKNVIFSPLSISTALAFLSLGAHNTTLTEILKGLKFNLTETSEAEIHQSFQHLLRTLNQSSDELQLSMGNAMFVKEQLSLLDRFTEDAKRLYGSEAFATDFQDSAAAKKLINDYVKNGTRGKITDLIKDLDSQTMMVLVNYIFFKAKWEMPFDPQDTHQSRFYLSKKKWVMVPMMSLHHLTIPYFRDEELSCTVVELKYTGNASALFILPDQDKMEEVEAMLLPETLKRWRDSLEFREIGELYLPKFSISRDYNLNDILLQLGIEEAFTSKADLSGITGARNLAVSQVVHKAVLDVFEEGTEASAATAVKITLLSALVETRTIVRFNRPFLMIIVPTDTQNIFFMSKVTNPKQA
- PSA-induced cell growth (MTT): limited influence
- PSA-induced cell growth (MTT) (listed as ACT): not significantly changed
